What all share (assay): cell_activity
Common to all, as to details: pair value

Series [1] concerns VInv_T03 TALE-nuclease left monomer (synthetic construct).
Series [2] concerns VInv_T03 TALE-nuclease right monomer (synthetic construct).
In series [3] the test system is VInv_T01 TALE-nuclease left monomer (synthetic construct).
Series [4] concerns VInv_T01 TALE-nuclease right monomer (synthetic construct).
Series [5] deals with VInv_T02 TALE-nuclease left monomer (synthetic construct).
The subject of series [6] is VInv_T02 TALE-nuclease right monomer (synthetic construct).
The mark [7] stands for this setting: S. tuberosum protoplasts, text p49 gives range up to 9.5%.
[8] abbreviates: yeast beta-galactosidase assay 37 C, 0.82 at 30 C.
[9] abbreviates: S. tuberosum protoplasts, endogenous locus.
Where [10] appears, read: yeast beta-galactosidase assay 37 C, 0.95 at 30 C.
Where [11] appears, read: yeast beta-galactosidase assay 37 C, 0.89 at 30 C.

In patent US20140178561 one finds activity and activity (relative to I-SceI) data, which are given here for six sequences.

For “TAGCCTTCTTTCCGATC (double strand) [VInv_T3 left half-site]”, in series [1] (setting [7]), the activity amounted to 9.9 % NHEJ. For the same sequence, the activity (relative to I-SceI) in series [1] (setting [8]) was determined as 0.96.

Sequence “CCGGACTTGCAGAGTAA (double strand) [VInv_T3 right half-site]” returned an activity in series [2] (setting [7]) of 9.9 % NHEJ. Further, in series [2] (setting [8]), the activity (relative to I-SceI) turned out to be 0.96.

Sequence “TTCCTCCCGGATCAACC (double strand) [VInv_T1 left half-site]” returned an activity in series [3] (setting [9]) of 3.6 % NHEJ. Further, the activity (relative to I-SceI) in series [3] (setting [10]) is 0.94.

In series [4] (setting [9]), “GAAGTCCCTTAAAATCA (double strand) [VInv_T1 right half-site]” gave an activity of 3.6 % NHEJ. Further, in series [4] (setting [10]), the activity (relative to I-SceI) worked out at 0.94.

In series [5] (setting [9]), “TTCCTCTCCTCTTTCCT (double strand) [VInv_T2 left half-site]” registered an activity of 9.5 % NHEJ. In addition, in series [5] (setting [11]), the activity (relative to I-SceI) was determined as 0.92.

Sequence “CTTCTTTCCGATCCTCA (double strand) [VInv_T2 right half-site]” showed an activity in series [6] (setting [9]) of 9.5 % NHEJ. In series [6] (setting [11]), this sequence showed an activity (relative to I-SceI) of 0.92.
